Results on 11 molecules are retold here after US20190048089A1 (Janssen / Centocor, published 2019).

Substitutions are numbered along the chain they refer to.

T1: cyno CD40 on cyno spleen B cells (Macaca fascicularis (cynomolgus), UniProt P25942 21-277 (human entry))
T1 chain: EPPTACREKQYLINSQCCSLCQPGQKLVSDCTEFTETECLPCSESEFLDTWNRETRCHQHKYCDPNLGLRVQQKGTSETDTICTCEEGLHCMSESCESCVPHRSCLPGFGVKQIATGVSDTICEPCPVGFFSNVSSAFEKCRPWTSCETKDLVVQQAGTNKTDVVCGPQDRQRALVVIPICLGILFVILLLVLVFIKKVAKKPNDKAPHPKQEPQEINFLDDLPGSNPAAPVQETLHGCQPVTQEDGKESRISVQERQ

B1: C40B125 (antibody, human IgG1, lambda)
heavy: EVQLVESGGGLVQPGGSLRLSCAASGFTFSSYAMSWVRQAPGKGLEWVSTIQNAGGGTYYADSVKGRFTISRDNSKNTLYLQMNSLRAEDTAVYYCAKEGGKYYYYAMDVWGQGTTVTVSSASTKGPSVFPLAPSSKSTSGGTAALGCLVKDYFPEPVTVSWNSGALTSGVHTFPAVLQSSGLYSLSSVVTVPSSSLGTQTYICNVNHKPSNTKVDKKVEPKSCDKTHTCPPCPAPEAAGASSVFLFPPKPKDTLMISRTPEVTCVVVDVSAEDPEVKFNWYVDGVEVHNAKTKPREEQYNSTYRVVSVLTVLHQDWLNGKEYKCKVSNKALPSSIEKTISKAKGQPREPQVYTLPPSREEMTKNQVSLTCLVKGFYPSDIAVEWESNGQPENNYKTTPPVLDSDGSFFLYSKLTVDKSRWQQGNVFSCSVMHEALHNHYTQKSLSLSPGK
light: SYELTQPPSVSVSPGQTASITCSGDKLGDKYAAWYQQKPGQSPVLVIYQDSRRPSGIPERFSGSNSGNTATLTISGTQAMDEADYYCQAWASSTVVFGGGTKLTVLGQPKAAPSVTLFPPSSEELQANKATLVCLISDFYPGAVTVAWKADSSPVKAGVETTTPSKQSNNKYAASSYLSLTPEQWKSHRSYSCQVTHEGSTVEKTVAPTECS
notes: IgG1sigma
B2: C40B124 (antibody, human IgG1, lambda)
heavy: B1 heavy with Q52D
light: B1 light
notes: IgG1sigma
B3: C40B127 (antibody, human IgG1, lambda)
heavy: B1 heavy with Q52N, N53Q
light: B1 light
notes: IgG1sigma
B4: C40B138 (antibody, human IgG4 S228P, lambda, F234A L235A)
heavy: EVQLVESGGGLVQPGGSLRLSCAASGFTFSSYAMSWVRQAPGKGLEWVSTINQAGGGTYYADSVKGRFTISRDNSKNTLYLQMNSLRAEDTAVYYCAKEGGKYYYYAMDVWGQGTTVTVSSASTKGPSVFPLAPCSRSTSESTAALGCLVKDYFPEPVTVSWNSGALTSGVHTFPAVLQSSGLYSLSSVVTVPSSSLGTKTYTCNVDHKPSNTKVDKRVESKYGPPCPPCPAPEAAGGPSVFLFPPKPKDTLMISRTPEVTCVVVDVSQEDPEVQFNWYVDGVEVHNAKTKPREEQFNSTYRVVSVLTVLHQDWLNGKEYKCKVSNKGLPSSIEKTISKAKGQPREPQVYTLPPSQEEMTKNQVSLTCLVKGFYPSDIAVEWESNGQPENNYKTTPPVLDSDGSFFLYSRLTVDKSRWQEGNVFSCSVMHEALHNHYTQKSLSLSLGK
light: B1 light
notes: IgG4PAA
B5: C40B179 (antibody, human IgG1, lambda)
heavy: B1 heavy with Q52N, N53Q, M108L
light: B1 light
notes: IgG1sigma
B6: C40B183 (antibody, human IgG4 S228P, lambda, F234A L235A)
heavy: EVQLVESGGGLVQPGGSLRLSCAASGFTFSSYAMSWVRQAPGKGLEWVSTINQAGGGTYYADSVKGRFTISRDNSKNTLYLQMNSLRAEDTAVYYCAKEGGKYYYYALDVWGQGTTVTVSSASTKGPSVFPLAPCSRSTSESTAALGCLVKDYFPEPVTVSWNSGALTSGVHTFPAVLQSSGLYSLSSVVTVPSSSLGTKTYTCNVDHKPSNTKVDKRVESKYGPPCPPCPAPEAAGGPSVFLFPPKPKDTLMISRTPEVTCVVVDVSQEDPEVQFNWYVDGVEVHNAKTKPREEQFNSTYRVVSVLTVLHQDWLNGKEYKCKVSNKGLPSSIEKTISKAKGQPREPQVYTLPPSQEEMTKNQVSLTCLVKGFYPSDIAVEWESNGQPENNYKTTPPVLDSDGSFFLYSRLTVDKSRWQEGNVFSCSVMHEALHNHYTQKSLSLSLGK
light: B1 light
notes: IgG4PAA
B7: C40B131 (antibody, human IgG4 S228P, lambda, F234A L235A, V domains shown)
VH: EVQLVESGGGLVQPGGSLRLSCAASGFTFSSYAMSWVRQAPGKGLEWVSTINAAGGGTYYADSVKGRFTISRDNSKNTLYLQMNSLRAEDTAVYYCAKEGGKYYYYAMDVWGQGTTVTVSS
VL: SYELTQPPSVSVSPGQTASITCSGDKLGDKYAAWYQQKPGQSPVLVIYQDSRRPSGIPERFSGSNSGNTATLTISGTQAMDEADYYCQAWASSTVVFGGGTKLTVLG
notes: IgG4PAA
B8: C40B180 (antibody, human IgG4 S228P, lambda, F234A L235A)
heavy: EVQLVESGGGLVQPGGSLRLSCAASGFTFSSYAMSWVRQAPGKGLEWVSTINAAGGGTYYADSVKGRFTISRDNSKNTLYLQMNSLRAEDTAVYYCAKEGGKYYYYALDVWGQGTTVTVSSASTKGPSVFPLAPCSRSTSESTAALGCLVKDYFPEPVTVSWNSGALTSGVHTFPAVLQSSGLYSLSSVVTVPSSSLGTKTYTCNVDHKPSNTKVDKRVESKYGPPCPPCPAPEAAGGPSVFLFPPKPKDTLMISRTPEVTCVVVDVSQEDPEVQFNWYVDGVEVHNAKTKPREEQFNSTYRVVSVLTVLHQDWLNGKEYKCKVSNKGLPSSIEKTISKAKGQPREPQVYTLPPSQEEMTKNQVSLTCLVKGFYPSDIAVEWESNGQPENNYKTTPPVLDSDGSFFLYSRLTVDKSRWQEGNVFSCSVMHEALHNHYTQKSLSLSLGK
light: B1 light
notes: IgG4PAA
B9: C40B135 (antibody, human IgG4 S228P, lambda, F234A L235A)
heavy: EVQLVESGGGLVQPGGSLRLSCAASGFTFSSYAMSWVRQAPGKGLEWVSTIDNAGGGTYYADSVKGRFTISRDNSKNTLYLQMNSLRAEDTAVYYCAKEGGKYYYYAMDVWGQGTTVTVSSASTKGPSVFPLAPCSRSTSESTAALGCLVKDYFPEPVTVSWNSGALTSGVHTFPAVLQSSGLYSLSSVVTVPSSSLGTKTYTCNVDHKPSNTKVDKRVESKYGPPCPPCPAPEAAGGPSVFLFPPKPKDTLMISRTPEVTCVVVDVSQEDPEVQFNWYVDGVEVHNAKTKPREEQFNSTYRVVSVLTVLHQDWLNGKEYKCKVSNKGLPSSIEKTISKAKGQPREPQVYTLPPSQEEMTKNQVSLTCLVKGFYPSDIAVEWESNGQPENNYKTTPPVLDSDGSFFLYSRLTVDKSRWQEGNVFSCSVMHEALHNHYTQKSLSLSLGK
light: B1 light
notes: IgG4PAA
B10: C40B136 (antibody, human IgG4 S228P, lambda, F234A L235A)
heavy: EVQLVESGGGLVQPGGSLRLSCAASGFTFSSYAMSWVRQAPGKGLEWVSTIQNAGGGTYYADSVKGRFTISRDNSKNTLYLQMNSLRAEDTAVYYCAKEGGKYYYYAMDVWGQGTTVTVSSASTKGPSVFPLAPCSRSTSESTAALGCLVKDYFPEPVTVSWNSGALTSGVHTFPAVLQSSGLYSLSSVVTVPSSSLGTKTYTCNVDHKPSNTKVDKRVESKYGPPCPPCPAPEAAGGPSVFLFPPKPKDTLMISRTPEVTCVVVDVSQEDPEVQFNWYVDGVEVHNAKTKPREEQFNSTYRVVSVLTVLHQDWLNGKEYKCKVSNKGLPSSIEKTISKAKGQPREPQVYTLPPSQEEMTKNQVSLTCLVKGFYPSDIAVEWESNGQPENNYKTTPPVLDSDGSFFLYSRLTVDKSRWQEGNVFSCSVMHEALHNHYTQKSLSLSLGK
light: B1 light
notes: IgG4PAA
B11: C40B16 (antibody, human IgG1, lambda, V domains shown)
VH: B7 VH with K43R, A53N, A54S, Q82H
VL: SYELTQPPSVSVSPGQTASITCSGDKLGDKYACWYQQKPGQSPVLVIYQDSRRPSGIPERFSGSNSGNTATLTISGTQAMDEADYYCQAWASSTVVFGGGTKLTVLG
notes: Wild-type IgG1, lambda light chain; also called parental C40B16

For one test, the target named is T2, human CD40 on cells (human tonsillar B cells, human dendritic cells, HEK-Blue CD40L cells) (human, UniProt P25942 21-277). Nature of the test: cell-based or functional assay.
As for B1, the “IC50, mCD40L-driven human B-cell proliferation” value was 128 pM and the “IC50, sCD40L-driven human B-cell proliferation” value was 88 pM.

As for B2, the “IC50, mCD40L-driven human B-cell proliferation” value came to 118 pM.

Turning to B3, the “IC50, mCD40L-driven human B-cell proliferation” value stood at 111 pM and the “IC50, sCD40L-driven human B-cell proliferation” value was determined as 73 pM.

As for B4, the “IC50, mCD40L-driven human B-cell proliferation” value came to 106 pM and the “IC50, sCD40L-driven human B-cell proliferation” value came to 48 pM.

With B5, the “IC50, mCD40L-driven human B-cell proliferation” value worked out at 178 pM and the “IC50, sCD40L-driven human B-cell proliferation” value stood at 132 pM.

With B6, the “IC50, mCD40L-driven human B-cell proliferation” value is 140 pM and the “IC50, sCD40L-driven human B-cell proliferation” value was determined as 103 pM.

Consider B7, for which the “IC50, mCD40L-driven human B-cell proliferation” value is 99 pM.

B8: the “IC50, mCD40L-driven human B-cell proliferation” value was 136 pM and the “IC50, sCD40L-driven human B-cell proliferation” value is 92 pM.

For B9, the “IC50, mCD40L-driven human B-cell proliferation” value was 131 pM and the “IC50, sCD40L-driven human B-cell proliferation” value was determined as 56 pM.

With B10, the “IC50, mCD40L-driven human B-cell proliferation” value came out at 122 pM and the “IC50, sCD40L-driven human B-cell proliferation” value came out at 87 pM.

Another test deals with T1, cyno CD40 on cyno spleen B cells. Nature of the test: cell-based or functional assay.
As for B1, the “IC50, sCD40L-driven cyno B-cell proliferation” value worked out at 83 pM.

On to B3, for which the “IC50, sCD40L-driven cyno B-cell proliferation” value is 66 pM.

Regarding B4, the “IC50, sCD40L-driven cyno B-cell proliferation” value is 75 pM.

In the case of B5, the “IC50, sCD40L-driven cyno B-cell proliferation” value came to 119 pM.

Turning to B6, the “IC50, sCD40L-driven cyno B-cell proliferation” value was 110 pM.

For the molecule B8, the “IC50, sCD40L-driven cyno B-cell proliferation” value was 109 pM.

On to B9, for which the “IC50, sCD40L-driven cyno B-cell proliferation” value turned out to be 77 pM.

As to B10, the “IC50, sCD40L-driven cyno B-cell proliferation” value worked out at 65 pM.

The next test has as its target T2, human CD40 on cells (human tonsillar B …). Nature of the test: cell-based or functional assay. This is another data set of the same source.
Take B1: the “IC50, mCD40L-driven DC IL-12p40 production” value is 393 pM and the “IC50, sCD40L-driven DC IL-12p40 production” value was found to be 244 pM.

Regarding B2, the “IC50, mCD40L-driven DC IL-12p40 production” value amounted to 507 pM and the “IC50, sCD40L-driven DC IL-12p40 production” value came out at 387 pM.

As for B3, the “IC50, mCD40L-driven DC IL-12p40 production” value came out at 383 pM and the “IC50, sCD40L-driven DC IL-12p40 production” value turned out to be 270 pM.

As to B4, the “IC50, mCD40L-driven DC IL-12p40 production” value was determined as 341 pM and the “IC50, sCD40L-driven DC IL-12p40 production” value turned out to be 262 pM.

In the case of B5, the “IC50, mCD40L-driven DC IL-12p40 production” value was determined as 297 pM and the “IC50, sCD40L-driven DC IL-12p40 production” value worked out at 184 pM.

Turning to B6, the “IC50, mCD40L-driven DC IL-12p40 production” value came out at 291 pM and the “IC50, sCD40L-driven DC IL-12p40 production” value was 208 pM.

On to B7, for which the “IC50, mCD40L-driven DC IL-12p40 production” value came out at 323 pM and the “IC50, sCD40L-driven DC IL-12p40 production” value stood at 330 pM.

In the case of B8, the “IC50, mCD40L-driven DC IL-12p40 production” value worked out at 222 pM and the “IC50, sCD40L-driven DC IL-12p40 production” value was 225 pM.

In the case of B9, the “IC50, mCD40L-driven DC IL-12p40 production” value turned out to be 430 pM and the “IC50, sCD40L-driven DC IL-12p40 production” value is 329 pM.

For the molecule B10, the “IC50, mCD40L-driven DC IL-12p40 production” value is 379 pM and the “IC50, sCD40L-driven DC IL-12p40 production” value was 246 pM.

Another test concerns the target T3, human CD40 (analyte in SPR) (human, UniProt P25942 21-193).
T3 construct: also called huCD40
Nature of the test: affinity in benchmark table; method not restated (SPR ProteOn of Example 3 presumed).
For B5, the Kd (commonly the free concentration of one partner at which half of the binding sites on the other are occupied at equilibrium, for simple one-to-one binding) is 34.3 pM.

Take B6: binding was characterised by a dissociation constant (Kd) of 107 pM.

In the case of B8, the Kd worked out at 59.9 pM.

In a further test the target is T3, human CD40 (analyte in SPR). Nature of the test: SPR, ProteOn XPR36, mAb captured on anti-human IgG Fc, CD40 as analyte, 25 C, 1:1 Langmuir. On the procedure:
Affinity of the antibodies to human CD40 was assessed using Surface Plasmon Resonance (SPR) using a ProteOn XPR36 system (BioRad). […] Approximately 5000 RU (response units) of mAbs were immobilized. The kinetic experiments were performed at 25° C. in running buffer (DPBS+0.01% P20+100 μg/ml BSA). To perform kinetic experiments, 200 RU of mAbs were captured followed by injections of analytes (human or cyno CD40) at 5 concentrations (in a 4-fold serial dilution). The association phase was monitored for 3 minutes at 50 μL/min, then followed by 15 minutes of buffer flow (dissociation phase). The chip surface was regenerated with two 18 second pulses of 100 mM H₃PO₄ (Sigma, Cat#7961) at 100 μL/min.
The collected data were processed using ProteOn Manager software. First, the data was corrected for background using inter-spots. Then, double reference subtraction of the data was performed by using the buffer injection for analyte injections. The kinetic analysis of the data was performed using a Langmuir 1:1 binding model. The results were reported in the format of Ka (On-rate), Kd (Off-rate) and KD (equilibrium dissociation constant).
In general terms: In SPR one partner is held on a chip, and binding of the other changes the refractive index at the surface.
With B11, the affinity, expressed as Kd, was 36.8 pM; the koff (as a rule, the rate constant with which the complex falls apart) was found to be 0.000157 s⁻¹; the kon (as a rule, a measure of how fast the partners come together) stood at 4.27e+06 M⁻¹ s⁻¹.

The molecule B1 had a Kd of 34.9 pM, a koff of 0.000136 s⁻¹ and a kon of 3.89e+06 M⁻¹ s⁻¹.

B2 gave a Kd of 41.6 pM, a koff of 9.56e-05 s⁻¹ and a kon of 2.3e+06 M⁻¹ s⁻¹.

B3 returned a Kd of 30.3 pM, a koff of 0.000115 s⁻¹ and a kon of 3.79e+06 M⁻¹ s⁻¹.

As for B4, the Kd came out at 59.9 pM, the koff is 0.000215 s⁻¹ and the kon is 3.58e+06 M⁻¹ s⁻¹.

B5 displayed a Kd of 93.3 pM, a koff of 0.000267 s⁻¹ and a kon of 2.86e+06 M⁻¹ s⁻¹.

B6 returned a Kd of 121 pM, a koff of 0.00035 s⁻¹ and a kon of 2.91e+06 M⁻¹ s⁻¹.

Regarding B7, the dissociation constant Kd was 81.2 pM, the koff came out at 0.000286 s⁻¹ and the kon is 3.52e+06 M⁻¹ s⁻¹.

B8 had a Kd of 137 pM, a koff of 0.000366 s⁻¹ and an on-rate (kon) of 2.67e+06 M⁻¹ s⁻¹.

B9 displayed a Kd of 49.6 pM, a koff of 0.000145 s⁻¹ and a kon of 2.93e+06 M⁻¹ s⁻¹.

In turn, B10 returned a Kd of 34.3 pM, a koff of 0.000113 s⁻¹ and a kon of 3.3e+06 M⁻¹ s⁻¹.
